Target: Complement System Protein C1q (UniProt P02745)
Assay: cell-based or functional assay

Sequence of UniProt P02745 (P02745 23-245, chain 1 of 3): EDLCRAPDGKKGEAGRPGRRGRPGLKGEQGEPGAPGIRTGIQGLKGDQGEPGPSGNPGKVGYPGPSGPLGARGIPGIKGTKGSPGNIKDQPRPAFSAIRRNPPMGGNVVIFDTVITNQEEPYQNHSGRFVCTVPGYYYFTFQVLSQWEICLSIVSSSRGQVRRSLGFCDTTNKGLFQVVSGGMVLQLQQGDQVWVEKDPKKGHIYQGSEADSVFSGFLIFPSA
Sequence of UniProt P02745 (P02746 28-253, chain 2 of 3, further chain): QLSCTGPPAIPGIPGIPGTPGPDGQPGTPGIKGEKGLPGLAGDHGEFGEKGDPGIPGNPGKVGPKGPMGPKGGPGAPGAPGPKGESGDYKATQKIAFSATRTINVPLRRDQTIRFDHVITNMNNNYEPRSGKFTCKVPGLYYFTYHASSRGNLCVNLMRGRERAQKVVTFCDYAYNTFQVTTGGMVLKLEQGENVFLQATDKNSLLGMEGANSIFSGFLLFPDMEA
Sequence of UniProt P02745 (P02747 29-245, chain 3 of 3, further chain): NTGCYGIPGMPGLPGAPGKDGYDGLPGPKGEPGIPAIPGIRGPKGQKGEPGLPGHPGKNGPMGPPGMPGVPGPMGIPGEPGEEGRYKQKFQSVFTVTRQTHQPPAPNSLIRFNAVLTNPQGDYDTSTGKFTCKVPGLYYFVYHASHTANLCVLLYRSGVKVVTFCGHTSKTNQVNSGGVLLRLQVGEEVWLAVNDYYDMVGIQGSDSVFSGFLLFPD

## BSA-anti-BSA Immune Complexes (from UniProt P02769 25-607)
  [4d] µg (Class.): 8 µg

— patent publication EP0888374B1
